# B1: MdCKX7 promoter P4 probe (dsDNA)
# DNA 1: GATACTATTCACTTTACCCTTTATTCTGTCCTTATC
# DNA 2: GATAAGGACAGAATAAAGGGTAAAGTGAATAGTATC
# B2: MdCKX7 promoter P4 mutant probe (dsDNA)
# DNA 1: GATACTAAAAAAAAAAAAAAAAAAAAAATCCTTATC
# DNA 2: GATAAGGATTTTTTTTTTTTTTTTTTTTTTAGTATC
# Assays:
# MdDOF3.6 [1] = molecular target: T1, MdDOF3.6 (Malus domestica, UniProt A0A498JFY8 1-358); assay: EMSA; not stated (EMSA according to cited protocol; biotin-labelled probes, Beyotime kit); details: protein: recombinant; tags: His; label: biotin
# T1 sequence: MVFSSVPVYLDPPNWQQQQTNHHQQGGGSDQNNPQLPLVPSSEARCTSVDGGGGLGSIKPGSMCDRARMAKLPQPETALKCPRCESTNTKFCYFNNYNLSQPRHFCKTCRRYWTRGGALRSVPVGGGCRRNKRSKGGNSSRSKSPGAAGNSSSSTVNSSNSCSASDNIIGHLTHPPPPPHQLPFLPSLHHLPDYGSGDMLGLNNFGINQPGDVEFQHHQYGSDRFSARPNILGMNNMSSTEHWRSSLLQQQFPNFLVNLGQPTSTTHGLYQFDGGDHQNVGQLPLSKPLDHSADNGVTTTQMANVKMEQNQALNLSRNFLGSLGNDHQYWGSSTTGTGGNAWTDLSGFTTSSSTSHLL
# MdDOF3.6 [2] = molecular target: T1, MdDOF3.6; assay: EMSA; mutated probe; shift disappeared; not stated (EMSA according to cited protocol; biotin-labelled probes, Beyotime kit); details: protein: recombinant; tags: His
binder,measurement,setting,value
B1,binding result,MdDOF3.6 [1],binds
B2,binding result,MdDOF3.6 [2],no binding

# Reference: article PMC12261083, “Two DNA-binding One Zinc Finger transcription factors, MdCDOF3 and MdDOF3.6, accelerate leaf senescence by activating cytokinin oxidase MdCKX7 in response to sorbitol signaling in apple”
